Experimental data as given in patent US20250332297A1, “DLL3-SPECIFIC BINDING CONSTRUCTS AND THEIR USE IN RADIOTHERAPY” (MOLECULAR PARTNERS AG, priority 2024, published 2025).
Substitutions are numbered along the chain they refer to.

Assays:
[1] = target: T1, Human DLL3 expressed on cells (HEK293T-hDLL3, NCI-H82, SHP-77, MC38-hDLL3) (human, UniProt Q9NYJ7 27-618); experiment: flow cytometry titration on HEK293T-hDLL3 cells, without HSA
T1 construct: also called DLL3 endogenously expressed on human cells
T1 sequence: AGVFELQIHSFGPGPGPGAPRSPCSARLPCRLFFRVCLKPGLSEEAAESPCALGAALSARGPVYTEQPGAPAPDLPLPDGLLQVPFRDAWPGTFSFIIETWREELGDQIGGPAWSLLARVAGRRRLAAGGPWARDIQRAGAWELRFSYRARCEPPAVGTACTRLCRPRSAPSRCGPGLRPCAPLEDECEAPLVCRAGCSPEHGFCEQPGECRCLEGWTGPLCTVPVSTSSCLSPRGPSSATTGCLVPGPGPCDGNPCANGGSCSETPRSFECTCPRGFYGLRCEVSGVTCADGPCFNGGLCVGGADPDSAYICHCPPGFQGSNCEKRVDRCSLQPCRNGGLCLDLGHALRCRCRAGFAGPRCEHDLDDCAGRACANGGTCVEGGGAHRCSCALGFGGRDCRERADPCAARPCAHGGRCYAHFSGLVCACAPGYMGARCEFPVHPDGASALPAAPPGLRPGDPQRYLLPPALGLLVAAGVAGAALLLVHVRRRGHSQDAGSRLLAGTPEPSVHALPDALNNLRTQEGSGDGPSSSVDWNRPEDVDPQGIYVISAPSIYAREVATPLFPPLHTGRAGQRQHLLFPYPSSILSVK
Procedure: (§1) Cell binding titration assays were performed for selected His-tagged single domain (1 D) and two domain (2D) designed ankyrin repeat proteins to determine binding to human DLL3 expressed on HEK293T-huDLL3 cells in absence and presence of human serum albumin. […] HEK293T-hDLL3 cells are HEK293T cells that were stably transfected to express human DLL3 on their surface.
(§2) In brief, 1×10⁵ cells/well were resuspended in 100 μl DARPin dilution (500 nM, 1:5 serial diluted) and incubated for 1 h at 4° C. Cells were washed twice with PBS and resuspended in 100 μl anti-DARPin antibody (rabbit anti-DARPin 1.4.8) and LIVE/DEAD fixable cell stain (1:1000, Thermo Fisher #L34957). This step was performed in absence and presence of […] Human Serum Albumin (CSL Behring #150570). After incubation and washing, cells were incubated with detection antibody for 30 minutes (Goat […] IgG (H+L), AF647, Thermo Fisher #21445). Cells were fixed (Paraformaldehyde Solution, LucernaChem) and acquired at Attune N×T (Thermo Life Technologies). Raw fcs files were exported and analyzed using FlowJo software. MFI values of live AF647-positive cells were exported from FlowJo and plotted using GraphPad Prism software.

[2] = target: T1, Human DLL3 expressed on cells …; experiment: flow cytometry titration on HEK293T-hDLL3 cells, with HSA
Procedure: as §1, §2

[3] = test system: NCI-H82 tumor model; experiment: Biodistribution of radio-labelled DARPin conjugates in NCI-H82 tumor model; conditions: mouse, in vivo, iv, 0.01 mg/kg
Procedure: NCI-H82 tumor model. R2G2 mice were purchased from Envigo. All studies were conducted under the approval of the institutional IACUC committee. Animals were maintained under specific-pathogen-free (SPF) conditions with daily cycles of light and darkness (12 h/12 h), in line with ethical guidelines. No manipulations were performed during the first 5 days after arrival, to allow the animals to acclimatize to the new environment. All mice were monitored daily for assessment of physical condition and general well-being. NCI-H82 cells were purchased from ATCC (Catalog No. HTB-175). Solid xenografts were established by subcutaneous (SQ) injection of NCI-H82 cells in RPMI media mixed 1:1 with Corning® Matrigel® basement membrane matrix (GFR; Corning, Cat No 354230.). Cells were quantified using Countess cell counter. Each mouse was injected SQ with 5×10^6 NCI-H82 cells in 100 μL RPMI/GFR-Matrigel into the right flank of each mouse. Tumor volumes were estimated three times per week through calipering, according to the formula: volume=0.5×length×width^2 and grown until they reached 200-300 mm^3. Tumor-associated antigen level expressed in tumors, tumor vascularization profile and DLL3 soluble form in mouse serum was tested.
Biodistribution study. […] Radio-labeled (Pb-212) DARPin conjugates were then injected at 0.01 mg/kg (10 μCi DARPin conjugates) into the tail vein of R2G2 mice (females) xenografted subcutaneously (at age of about 7 weeks) with NCI-H82 cells (5 million cells, growth factor reduced Matrigel) and bearing tumors (5-10 mm in diameter). […] Biodistribution was monitored at 4 h and 24h post-injection. Mice were euthanized by CO2 inhalation and cervical dislocation. Blood, spleen, kidneys, liver and tumor were extracted, weighed and the radioactivity was determined with a γ-counter counter (such as Wizard^22470, Perkin Elmer). The data were expressed as the % injected dose/gram (% ID/g).
Radio-labeled (Pb-212) DARPin conjugates were then injected at 0.01 mg/kg (10 μCi DARPin conjugates) into the tail vein of R2G2 mice (females) xenografted subcutaneously (at age of about 7 weeks) with NCI-H82 cells (5 million cells, growth factor reduced Matrigel) and bearing tumors (5-10 mm in diameter). Biodistribution was monitored at 4 h and 24h post-injection. Mice were euthanized by CO2 inhalation and cervical dislocation. Kidneys and tumor were extracted, weighed and the radioactivity was determined with a γ-counter counter (such as Wizard^22470, Perkin Elmer). The data were expressed as the % injected dose/gram (% ID/g) and the tumor to kidney (T:K) ratio was determined.
Radio-labelled (Pb-212) DARPin conjugates were then injected at 0.01 mg/kg (10 μCi DARPin conjugates) (i) into the tail vein of R2G2 mice (females) xenografted subcutaneously (at age of about 7 weeks) with NCI-H82 cells (5 million cells, growth factor reduced Matrigel) and bearing tumors (5-10 mm in diameter), and (ii) into the tail vein of athymic nude mice (females) xenografted subcutaneously (at age of about 7 weeks) with hDLL3-MC38 cells (5 million cells, growth factor reduced Matrigel) and bearing tumors (5-10 mm in diameter). Biodistribution was monitored at 4 h and 24h post-injection. Mice were euthanized by CO2 inhalation and cervical dislocation. Blood, bladder, small intestine, colon, spleen, kidneys, liver, lung, heart, tail and tumor were extracted, weighed and the radioactivity was determined with a γ-counter (such as Wizard^22470, Perkin Elmer). The data were expressed as the % injected dose/gram (% ID/g).

[4] = test system: NCI-H82 tumors; experiment: Efficacy (tumor growth) in NCI-H82 tumor model; assay type: in vivo, mouse; conditions: Dunnett's multiple comparisons test, tumor volume in mm^3, NCI-H82, R2G2 mice
Procedure: To determine the efficacy of radio-labelled (Pb-212) DARPin (MAM279) conjugate in inhibiting the growth of tumors that express DLL3, different dose regimens (single or repeated dose) of the conjugate were tested in a relevant mouse tumor model (NCI-H82).
Animals were under observation daily and 3× per week tumors were measured by caliper. Animals were sacrificed when tumors reached 1500 to 2000 mm^3 or if termination criteria were met. The data were expressed as average+/−SEM of tumor volume in mm^3.
To determine the efficacy of more frequent repeat-dosing of radio-labelled (Pb-212) DARPin (MAM279) conjugate in inhibiting the growth of tumors that express DLL3, a weekly repeat-dosing regimen of the conjugate was tested in a relevant mouse tumor model (NCI-H82).
Corresponding injections of buffer only were done as control. The first weekly injection of radio-labeled molecules was done 14 days after xenografting the NCI-H82 cells. Animals were under observation daily and 3× per week tumors were measured by caliper. Animals were sacrificed when tumors reached 1500 to 2000 mm^3 or if termination criteria were met. The data were expressed as average+/−SEM of tumor volume in mm^3. Results are shown in FIGS. 20A to 20D and Table 23.

B1: Non-binding DARPin control comprising SEQ ID NO: 21 (designed binder)
chain: DLGKKLLEAARAGQDDEVRELLKAGADVNAKDKDGYTPLHLAAREGHLEIVEVLLKAGADVNAKDKDGYTPLHLAAREGHLEIVEVLLKAGADVNAQDKSGKTPADLAADAGHEDIAEVLQKAA
notes: Negative control on HEK293T-hDLL3 cells
binding result [1]: no binding (tested: 500 nM)

B2: MAM112 (single domain ankyrin repeat protein, His-tagged) (designed binder)
chain: DLGKKLLAAAADGQDDEVRELLQAGADVNAKDLFGYTPLHLAAWRGHLEIVEVLLEAGADVNAKDAAGETPLHLAAWFGHLEIVEVLLEAGADVNAQDVQGKTPADLAAKEGHEDIAEVLQQAA
notes: also called 1D DARPin; not shown: His-tag
EC50 [2]: 4.6 nM
EC50 [1]: 4.2 nM

B3: MAM093 (single domain ankyrin repeat protein, His-tagged) (designed binder)
chain: B2 chain with D12Q, Q23K, D27N, E56K, E89K, V99L, Q122K
notes: as for B2
EC50 [2]: 5.5 nM
EC50 [1]: 4.9 nM

B4: MAM120 (single domain ankyrin repeat protein, His-tagged) (designed binder)
chain: B2 chain with K4T, A8S, E69L, K102V
notes: as for B2
EC50 [2]: 8 nM
EC50 [1]: 7 nM

B5: MAM088 (single domain ankyrin repeat protein, His-tagged) (designed binder)
chain: DLGKKLLAAAREGQDDEVRELLKAGADVNAKDIWGQTPLHIAAWFGHLEIVEVLLKAGADVNAKDQTGHTPLHLAAKFGHLEIVEVLLKAGADVNAQDLLGRTPADLAAEEGHEDIAEVLQKAA
notes: as for B2
EC50 [2]: 5.1 nM
EC50 [1]: 5 nM

B6: MAM120: Ankyrin repeat domain specific for DLL3 (SEQ ID NO: 4); single domain (1D) DARPin (protein)
chain: B2 chain with K4T, A8S, E69L, K102V
modifications: Ankyrin repeat domain specific for DLL3 (MAM120)
Blood % ID/g ([3]; 4 h): 0.1 % ID/g
Kidneys % ID/g ([3]; 4 h): 65.5 % ID/g
Tumors % ID/g ([3]; 4 h): 2.6 % ID/g
Blood % ID/g ([3]; 24 h): 0.1 % ID/g
Kidneys % ID/g ([3]; 24 h): 47.3 % ID/g
Tumors % ID/g ([3]; 24 h): 2.9 % ID/g

B7: Rova conjugate: Rova antibody conjugated with chelator (DOTAM) and labeled with Pb-212, used as control molecule (conjugate, chains of the INN, looked up)
VH: QVQLVQSGAEVKKPGASVKVSCKASGYTFTNYGMNWVRQAPGQGLEWMGWINTYTGEPTYADDFKGRVTMTTDTSTSTAYMELRSLRSDDTAVYYCARIGDSSPSDYWGQGTLVTVSS
VL: EIVMTQSPATLSVSPGERATLSCKASQSVSNDVVWYQQKPGQAPRLLIYYASNRYTGIPARFSGSGSGTEFTLTISSLQSEDFAVYYCQQDYTSPWTFGQGTKLEIK
modifications: DOTAM chelator, 212Pb radiolabel
notes: Rova antibody conjugated with chelator (DOTAM) and labeled with Pb-212, used as control molecule
Mean Diff. ([4]; Buffer vs. conjugate (1 × 10μCi)): 119.6
Mean Diff. ([4]; Buffer vs. conjugate (4 × 10μCi, injections 2 weeks apart)): 256.3

B8: neg. control: negative control DARPin (SEQ ID NO: 26), DLL3-specific domain replaced with non-binding domain, DOTAM-conjugated, Pb-212 labelled (conjugate)
chain: GSDLGKKLLEAARAGQDDEVRELLKAGADVNAKDYFSHTPLHLAARNGHLKIVEVLLKAGADVNAKDFAGKTPLHLAADAGHLEIVEVLLKAGADVNAQDIFGKTPADIAADAGHEDIAEVLQKAAGSPTPTPTTPTPTPTTPTPTPTGSDLGKKLLEAARAGQDDEVRELLKAGADVNAKDKDGYTPLHLAAREGHLEIVEVLLKAGADVNAKDKDGYTPLHLAAREGHLEIVEVLLKAGADVNAQDKSGKTPADLAADAGHEDIAEVLQKAAGSGSC
modifications: DOTAM conjugate, Pb-212 label; Ankyrin repeat protein (control)
Mean Diff. ([4]; Buffer only vs. (4 × 10μCi, 1 wk)): −64.44
